Test results from patent US8114412B2, “T. cruzi-derived neurotrophic agents and methods of use therefor” (priority 1999, dated 2012).
“Also recorded” adds a separate entry of the source.

B1: TS-H32 (protein, listed as Trypanosoma cruzi)
chain: KKKQVFSKIFYSEDDGKTWKFGEGRSAFGCSEAVALEWEGKLIINTRVDYRRRLVYESSDMGNTWLEAVGTLSRVWGPSPKSNQPGSQSSFTAVTIEGMRVMLFTHPLNFKGRWLRDRLNLWLTDNQRIYNVGQVSIGDENSAHSSVLYKDDKLYCLHEINSNEVYSLVFARLVGELRIIKSVLQSWKNWDSHLSSICTP
B2: cruzipain: T. cruzi protease (protein, UniProt P25779 123-467, looked up)
Cruzipain: APAAVDWRARGAVTAVKDQGQCGSCWAFSAIGNVECQWFLAGHPLTNLSEQMLVSCDKTDSGCSGGLMNNAFEWIVQENNGAVYTEDSYPYASGEGISPPCTTSGHTVGATITGHVELPQDEAQIAAWLAVNGPVAVAVDASSWMTYTGGVMTSCVSEQLDHGVLLVGYNDSAAVPYWIIKNSWTTQWGEEGYIRIAKGSNQCLVKEEASSAVVGGPGPTPEPTTTTTTSAPGPSPSYFVQMSCTDAACIVGCENVTLPTGQCLLTTSGVSAIVTCGAETLTEEVFLTSTHCSGPSVRSSVPLNKCNRLLRGSVEFFCGSSSSGRLADVDRQRRHQPYHSRHRRL
B3: TS-Cat-47: recombinant fragment consisting of amino acid residues 79-415 of TS (SEQ ID NO:2) (protein, listed as Trypanosoma cruzi)
chain: MVAIADARYDTSNDNSLIDTVAKYSVDDGETWETQIAIKNSRVSSVSRVVDPTVIVKGNKLYVLVGSYYSSRSYWSSHGDARDWDILLAVGEVTKSTAGGKITASIKWGSPVSLKKFFPAEMEGMHTNQFLGGAGVAIVASNGNLVYPVQVTNKKKQVFSKIFYSEDDGKTWKFGKGRSDFGCSEPVALEWEGKLIINTRVDWKRRLVYESSDMEKPWVEAVGTVSRVWGPSPKSNQPGSQSSFTAVTIEGMRVMLFTHPLNFKGRWLRDRLNLWLTDNQRIYNVGQVSIGDENSAYSSVLYKDDKLYCLHEINTDEVYSLVFARLVGELRIIKSVL
B4: TS-CC-47: recombinant fragment consisting of amino acid residues 79-478 of TS (SEQ ID NO:2) (protein, listed as Trypanosoma cruzi)
chain: MVAIADARYDTSNDNSLIDTVAKYSVDDGETWETQIAIKNSRVSSVSRVVDPTVIVKGNKLYVLVGSYYSSRSYWSSHGDARDWDILLAVGEVTKSTAGGKITASIKWGSPVSLKKFFPAEMEGMHTNQFLGGAGVAIVASNGNLVYPVQVTNKKKQVFSKIFYSEDDGKTWKFGKGRSDFGCSEPVALEWEGKLIINTRVDWKRRLVYESSDMEKPWVEAVGTVSRVWGPSPKSNQPGSQSSFTAVTIEGMRVMLFTHPLNFKGRWLRDRLNLWLTDNQRIYNVGQVSIGDENSAYSSVLYKDDKLYCLHEINTDEVYSLVFARLVGELRIIKSVLRSWKNWDSHLSSICTPADPAASSSESGCGPAVTTVGLVGFLSGNASQNVWEDAYRCVNASTAN
B5: TS-F-47: recombinant TS fragment, amino acid residues 79-666 of SEQ ID NO:34 (protein, listed as Trypanosoma cruzi)
chain: GDARDWDILLAVGEVTKSTAGGKITASIKWGSPVSLKKFFPAEMEGMHTNQFLGGAGVAIVASNGNLVYPVQVTNKRKQVFSKIFYSEDDGKTWKFGKGRSDFGCSEPVALEWEGKLIINTRVDWKRRLVYESSDMEKPWVEAVGTVSRVWGPSPKSNQPGSQTSFTAVTIEGMRVMLFTHPLNFKGRCVRDRLNLWLTDNQRIYNVGQVSIGDENSAYSSVLYKDDKLYCLHEINTDEVYSLVFARLVGELRIIKSVLRSWKNWTATCPAFAPLLIQPLRRQRVVVVPLSPRLVLLAFCRQRLPKRMGGSYRCVNASTANAERVRNGLKFAGVGGGALWPVSQQGQNQRYRFANHAFTLVASVTIHEAPRAASPLLGASLDSSGGKKLLGLSYDEKHQWQPIYGSTPVTPTGSWETGKRYHLVLTMANKIGSVYIDGELLEGSGQTVVPDGRTPDISHFYVGGYKRSDMPTISHVTVNNVLLYNRRQLNTEEIRTLFLSQDLIGTEAHMDSSSDSSAHSTPSTPADSSAHSTPSTPVDSSAHSTPSTPADSSAHGTPSTPVDSSAHGTPSTPADSSAHGTPSTPVDS

Legend:
[1] = Trans-sialidase assay; format: biochemical
Method: The trans-sialidase assay was performed as described (Scudder et al., J. Biol. Chem. 268:9886-9891 (1993)) with slight modifications. Various amounts of intact enzyme or enzyme fragments were added to 50 mM PBS, Ph 7.2, containing 15% fetal calf serum and […] of [^14C]N-acetyllactosamine (4×10^5 dpm), 50 μg BSA and 0.02% NaN3 in a volume of 60 μl. After incubation for a predetermined amount of time at room temperature, the reaction mixture was diluted to 1.0 ml with distilled water and applied to a column containing 1.0 ml Q-Sepharose equilibrated with water. Sialylated product was eluted with 1 M NaCi and quantified by scintillation counting.
TS enzymatic activity was measured by the sialylation of the acceptor ^14C-labeled N-acetyllactosamine on anion exchange resins (Scudder, P. et. al., J. Biol. Chem. 268:9886-9891 (1993)). Recombinant TSA-1, was expressed on insect sf9 cells and purified from serum-free medium by ion exchange chromatography (monoQ) and preparative SDS-PAGE (Wrightsman, R. A. et al., J. Immunol., 153:3148-3154 (1994).

[2] = tested on: peripheral blood mononuclear cells (PBMC); experiment: IL-6 secretion by PBMC (ELISA); format: cell-based, human; parameters: IL-6 secretion by PBMC: dose or concentration left out as unconfirmed; settings: 24 hrs culture
Method: (§1) Primary cultures of human intestinal microvascular endothelial cells (HIMEC) isolated from normal jejunal mucosa/submucosal tissue were prepared as described (Strong et al., Gastroenterology 114: 1244-1256 (1998)). The HIMEC were cultured in fibronectin-coated plasticware in MCDB medium (Sigma) supplemented with 20% FBS, 90 μg/ml heparin and 50 μg/ml endothelial cell growth factor (Sigma). T-24 cells (ATCC Accession No. HTB-4) were cultured in M199 medium supplemented with 10% FBS. PBMC were purified by Ficoll-Paque gradient as described (Current Protocols in Immunology, pp 7.1.1-7.1.2). Vero cells (ATCC Accession No. CCL-81) were grown in RPMI medium with 5% Nu serum and infected with the Silvio X-10/4 of T. cruzi as described previously (Chuenkova et al., J. Exp. Med. 181: 1693-1703, (1995)).
(§2) Endothelial cells and T-24 cells were plated on 24-well plates at a density of 1×10^3 cells/well, while peripheral blood mononuclear cells (PBMC) were plated in the similar wells at 1×10^6/well. Triplicat cultures of cells were incubated test agents for a predetermined amount of time. […] Cytokines and chemokines released in the culture supernatants were measured by ELISA assay following the instructions of the manufacturer (Endogen). The cytokines tested were IL-1β, IL-4, IL-8, IL-10, IL-12, IFN-γ, TNF-α, and the chemokines RANTES and MCP-1. Negative controls were cells incubated in medium containing polymixin B at 10 μg/ml, and positive controls were cells incubated with bacterial LPS at the low ng/ml range (for PBMC or HIMEC) or in the μg/ml range for carcinoma T-24 cells. In some experiments, IL-1β, or TNFα were used as positive control for cytokine release.
TR peptides (Table 2) were synthesized at the Tufts Synthesis Facility (Boston, Mass.). Each peptide was purified by HPLC, and the number of amino acids and molecular weight of each peptide verified by mass spectrometry. Peptides were dissolved in growth medium (10% FCS in RPMI) and added at various concentrations to 1×10^6 PBMC/well in 24-well plates. After 24 hrs, IL-6 was assayed by ELISA in the conditioned supernatants.

[3] = tested on: human bladder carcinoma T-24 cell line; experiment: IL-6 secretion by T-24 carcinoma cells (ELISA); format: cell-based; settings: 24 hours culture
Method: as §1, §2

[4] = tested on: PC12 cells; experiment: Neurite outgrowth assay in PC12 cells; format: cell-based, rat; settings: neurite outgrowth assay, concentration not given
Excerpt: (§3) PC12 cells were obtained from ATCC (Manassas, Va. (Accession No. CRL-1721)) and cultured on collagen-coated dishes in RPMI 1640 supplemented with 10% horse serum and 5% fetal bovine serum (Greene, L. A. and Tishler, A. S., Proc. Natl. Acad. Sci. USA, 73: 2424-2428 (1976)). For differentiation and survival experiments, cells were washed three times in serum-free RPMI/0.2% BSA, plated in the same medium in collagen-coated plastic dishes at 2×10^5/ml, without and with growth factors, TS, recombinant proteins, synthetic peptides, for the time and concentrations indicated in the Figures.
(§4) 96-well microtiter plates were coated overnight at 4° C. with the TS or peptides or fragments thereof, or with control proteins laminin (Ln) or bovine serum albumin (BSA) at 500 μg/ml. After removing the compounds, the plates were further incubated with 1% BSA for 1 hour at room temperature and immediately used as substratum for PC12 or N18 (Prasad, K. N., Biol Rev Camb Philos Soc, 66:431-451 (1991)) cells in serum-free RPMI/0.2% BSA. Neurite outgrowth was measured using a phase-contrast microscope 17 hours later.

[5] = tested on: PC12 cells; experiment: Trophic factor withdrawal-induced apoptosis of PC12 cells (DAPI/TUNEL); format: cell-based, rat; settings: serum-free RPMI-1640/0.2% BSA, 17 hours, DAPI or TUNEL
Excerpt: as §3
Cell staining with 4,6-diamino-2-phenylindole (DAPI). Cells were fixed with 4% formaldehyde in PBS for 5 minutes, washed with PBS, stained with 10 μg/ml DAPI (Sigma) for 2 minutes, washed with PBS, and visualized under UV light using a fluorescent microscope. About 300-400 cells were examined under the microscope to determine the percentage of apoptotic cells.
Cell DNA nick end labeling (TUNEL) (Gavrieli, Y., et al., J. Cell. Biol. 119: 493-501 (1992)) assay was performed using a kit purchased from Boehringer Mannheim as described by the manufacturer.
Protection against apoptosis of PC12 cells in serum-free medium containing a test agent (agent N)(e.g., protection induced by TS, TS fragments, NGF or other growth factors), was calculated by the formula: 100%-[(apoptosis(%) of cells kept in RPMI containing test agent N÷apoptosis (%) of cells kept in RPMI)×100%]. Testing the effect of wortmannin (Sigma) and LY294002 (Sigma) in inhibiting the neuroprotection of TS was performed following the protocol described by others (Yao and Cooper, Science, 267:2003-2006 (1995); D'Mello et al., J. Neurosci 17:1548-1560 (1997)). In brief, PC12 cells were switched from growth medium to RPMI without and with TS or various other growth factors. After 24 hr, wortmannin and LY294002 were added to the cultures. After another 24 hrs, cells were examined for apoptosis by the DAPI assay, as above.

[6] = tested on: N18 cells; experiment: Neurite outgrowth assay in N18 cells; format: cell-based; settings: immobilized proteins coated at 500 μg/ml, 17 hours (FIG. 3A)
Method: FIG. 3A is a graph showing that neurite outgrowth in N18 cells is induced by immobilized laminin (Ln), immobilized TS and immobilized fragments of TS. Proteins were immobilized by incubating plates which contained wells filled with solutions of the proteins (protein concentration was 500 μg/ml) at 4° C. overnight. The protein solutions were removed and the plates were further incubated with 1% BSA at room temperature for one hour. N18 cells were cultured in the coated wells in serum-free RPMI-1640/0.2% BSA for 17 hours, and neurite outgrowth was measured by phase-contrast microscopy. […] Ln, laminin; TS, purified T. cruzi trans-sialidase; 7F, recombinant TS from clone 7F; 19Y, recombinant TS from clone 19Y; TS-F, recombinant fragment consisting of amino acid residues 33-666 of TS (SEQ ID NO:2); TS-CC-47, recombinant fragment consisting of amino acid residues 79-478 of TS (SEQ ID NO:2); TS-Cat-47, recombinant fragment consisting of amino acid residues 79-415 of TS (SEQ ID NO:2); BSA, bovine serum albumin.
as §4

Molecule | trans-sialidase enzymatic activity [1] | IL-6 secretion by PBMC [2] | IL-6 secretion by T-24 cells [3] | neurite outgrowth in PC12 cells [4] | protection of PC12 cells from apoptosis induced by trophic factor withdrawal [5] | neurite outgrowth in N18 cells [6]
B1 | enzymatically-inactive | stimulating IL-6 secretion | stimulating IL-6 secretion |  |  | 
B2 |  |  |  | did not induce neurite extension |  | 
B3 |  |  |  | did not promote neurite outgrowth | promoted the survival of the PC12 cells | inactive in stimulating neurite outgrowth
B4 |  |  |  |  | active | did not substantially reduce neurite outgrowth; also recorded: active
B5 | enzymatically inactive |  |  |  | active | as effective as the native enzyme in stimulating neurite outgrowth; also recorded: active
